{"source": "IntAct's records for PubMed 31515488", "parents": {"B1": {"name": "E3 ubiquitin-protein ligase TRIM32 (Homo sapiens), Q13049 (parent)", "chain": "MAAAAASHLNLDALREVLECPICMESFTEEQLRPKLLHCGHTICRQCLEKLLASSINGVRCPFCSKITRITSLTQLTDNLTVLKIIDTAGLSEAVGLLMCRSCGRRLPRQFCRSCGLVLCEPCREADHQPPGHCTLPVKEAAEERRRDFGEKLTRLRELMGELQRRKAALEGVSKDLQARYKAVLQEYGHEERRVQDELARSRKFFTGSLAEVEKSNSQVVEEQSYLLNIAEVQAVSRCDYFLAKIKQADVALLEETADEEEPELTASLPRELTLQDVELLKVGHVGPLQIGQAVKKPRTVNVEDSWAMEATASAASTSVTFREMDMSPEEVVASPRASPAKQRGPEAASNIQQCLFLKKMGAKGSTPGMFNLPVSLYVTSQGEVLVADRGNYRIQVFTRKGFLKEIRRSPSGIDSFVLSFLGADLPNLTPLSVAMNCQGLIGVTDSYDNSLKVYTLDGHCVACHRSQLSKPWGITALPSGQFVVTDVEGGKLWCFTVDRGSGVVKYSCLCSAVRPKFVTCDAEGTVYFTQGLGLNLENRQNEHHLEGGFSIGSVGPDGQLGRQISHFFSENEDFRCIAGMCVDARGDLIVADSSRKEILHFPKGGGYSVLIREGLTCPVGIALTPKGQLLVLDCWDHCIKIYSYHLRRYSTP"}, "B2": {"name": "WASH complex subunit 3 (Homo sapiens), Q9Y3C0 (parent)", "chain": "MDEDGLPLMGSGIDLTKVPAIQQKRTVAFLNQFVVHTVQFLNRFSTVCEEKLADLSLRIQQIETTLNILDAKLSSIPGLDDVTVEVSPLNVTSVTNGAHPEATSEQPQQNSTQDSGLQESEVSAENILTVAKDPRYARYLKMVQVGVPVMAIRNKMISEGLDPDLLERPDAPVPDGESEKTVEESSDSESSFSD", "partner": "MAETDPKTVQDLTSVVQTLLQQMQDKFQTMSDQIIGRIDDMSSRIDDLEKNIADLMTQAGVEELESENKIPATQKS"}, "B3": {"name": "TNF receptor-associated factor 2 (Homo sapiens), Q12933 (parent)", "chain": "MAAASVTPPGSLELLQPGFSKTLLGTKLEAKYLCSACRNVLRRPFQAQCGHRYCSFCLASILSSGPQNCAACVHEGIYEEGISILESSSAFPDNAARREVESLPAVCPSDGCTWKGTLKEYESCHEGRCPLMLTECPACKGLVRLGEKERHLEHECPERSLSCRHCRAPCCGADVKAHHEVCPKFPLTCDGCGKKKIPREKFQDHVKTCGKCRVPCRFHAIGCLETVEGEKQQEHEVQWLREHLAMLLSSVLEAKPLLGDQSHAGSELLQRCESLEKKTATFENIVCVLNREVERVAMTAEACSRQHRLDQDKIEALSSKVQQLERSIGLKDLAMADLEQKVLEMEASTYDGVFIWKISDFARKRQEAVAGRIPAIFSPAFYTSRYGYKMCLRIYLNGDGTGRGTHLSLFFVVMKGPNDALLRWPFNQKVTLMLLDQNNREHVIDAFRPDVTSSSFQRPVNDMNIASGCPLFCPVSKMEAKNSYVRDDAIFIKAIVDLTGL", "partner": "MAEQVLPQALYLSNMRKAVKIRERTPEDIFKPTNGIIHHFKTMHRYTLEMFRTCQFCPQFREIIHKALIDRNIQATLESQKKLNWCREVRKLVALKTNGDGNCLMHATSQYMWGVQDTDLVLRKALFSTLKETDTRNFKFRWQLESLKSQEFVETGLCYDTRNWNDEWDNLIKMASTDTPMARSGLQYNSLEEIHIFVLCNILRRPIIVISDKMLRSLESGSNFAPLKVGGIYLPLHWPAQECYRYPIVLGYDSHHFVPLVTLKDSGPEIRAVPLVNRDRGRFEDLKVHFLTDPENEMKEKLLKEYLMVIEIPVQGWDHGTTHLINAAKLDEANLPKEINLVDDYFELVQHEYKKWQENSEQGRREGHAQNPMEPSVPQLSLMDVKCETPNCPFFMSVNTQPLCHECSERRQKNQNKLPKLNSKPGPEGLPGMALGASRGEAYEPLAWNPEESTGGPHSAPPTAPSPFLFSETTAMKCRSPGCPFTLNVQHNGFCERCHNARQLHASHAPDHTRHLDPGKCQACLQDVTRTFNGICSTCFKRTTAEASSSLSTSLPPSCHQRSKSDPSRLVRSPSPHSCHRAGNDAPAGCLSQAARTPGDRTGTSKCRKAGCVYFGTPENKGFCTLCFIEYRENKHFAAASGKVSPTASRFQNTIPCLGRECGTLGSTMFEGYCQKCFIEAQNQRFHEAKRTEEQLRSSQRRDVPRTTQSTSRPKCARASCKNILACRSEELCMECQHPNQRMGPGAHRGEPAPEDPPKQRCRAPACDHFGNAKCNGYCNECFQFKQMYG"}, "B4": {"name": "DCC-interacting protein 13-alpha (Homo sapiens), Q9UKG1 (parent)", "chain": "MPGIDKLPIEETLEDSPQTRSLLGVFEEDATAISNYMNQLYQAMHRIYDAQNELSAATHLTSKLLKEYEKQRFPLGGDDEVMSSTLQQFSKVIDELSSCHAVLSTQLADAMMFPITQFKERDLKEILTLKEVFQIASNDHDAAINRYSRLSKKRENDKVKYEVTEDVYTSRKKQHQTMMHYFCALNTLQYKKKIALLEPLLGYMQAQISFFKMGSENLNEQLEEFLANIGTSVQNVRREMDSDIETMQQTIEDLEVASDPLYVPDPDPTKFPVNRNLTRKAGYLNARNKTGLVSSTWDRQFYFTQGGNLMSQARGDVAGGLAMDIDNCSVMAVDCEDRRYCFQITSFDGKKSSILQAESKKDHEEWICTINNISKQIYLSENPEETAARVNQSALEAVTPSPSFQQRHESLRPAAGQSRPPTARTSSSGSLGSESTNLAALSLDSLVAPDTPIQFDIISPVCEDQPGQAKAFGQGGRRTNPFGESGGSTKSETEDSILHQLFIVRFLGSMEVKSDDHPDVVYETMRQILAARAIHNIFRMTESHLLVTCDCLKLIDPQTQVTRLTFPLPCVVLYATHQENKRLFGFVLRTSSGRSESNLSSVCYIFESNNEGEKICDSVGLAKQIALHAELDRRASEKQKEIERVKEKQQKELNKQKQIEKDLEEQSRLIAASSRPNQASSEGQFVVLSSSQSEESDLGEGGKKRESEA"}, "B5": {"name": "Myogenin (Homo sapiens), P15173 (parent)", "chain": "MELYETSPYFYQEPRFYDGENYLPVHLQGFEPPGYERTELTLSPEAPGPLEDKGLGTPEHCPGQCLPWACKVCKRKSVSVDRRRAATLREKRRLKKVNEAFEALKRSTLLNPNQRLPKVEILRSAIQYIERLQALLSSLNQEERDLRYRGGGGPQPGVPSECSSHSASCSPEWGSALEFSANPGDHLLTADPTDAHNLHSLTSIVDSITVEDVSVAFPDETMPN"}, "B6": {"name": "Keratin, type II cytoskeletal 79 (Homo sapiens), Q5XKE5 (parent)", "chain": "MRSSVSRQTYSTKGGFSSNSASGGSGSQARTSFSSVTVSRSSGSGGGAHCGPGTGGFGSRSLYNLGGHKSISVSVAGGALLGRALGGFGFGSRAFMGQGAGRQTFGPACPPGGIQEVTVNQSLLTPLHVEIDPEIQRVRTQEREQIKTLNNKFASFIDKVRFLEQQNKVLETKWALLQEQGQNLGVTRNNLEPLFEAYLGSMRSTLDRLQSERGRLDSELRNVQDLVEDFKNKYEDEINKHTAAENEFVVLKKDVDAAYMGRMDLHGKVGTLTQEIDFLQQLYEMELSQVQTHVSNTNVVLSMDNNRNLDLDSIIAEVKAQYELIAQRSRAEAEAWYQTKYEELQVTAGKHGDNLRDTKNEIAELTRTIQRLQGEADAAKKQCQQLQTAIAEAEQRGELALKDAQKKLGDLDVALHQAKEDLTRLLRDYQELMNVKLALDVEIATYRKLLESEESRMSGECPSAVSISVTGNSTTVCGGGAASFGGGISLGGSGGATKGGFSTNVGYSTVKGGPVSAGTSILRKTTTVKTSSQRY"}}}
{"variants_of": "B1", "conditions": "with abi2_human ABI2, Q9NYB9"}
{"variant": "E547A", "effect of a mutation on the interaction": "disrupting interaction strength"}
{"variants_of": "B1", "conditions": "with pde9a_human PDE9A"}
{"variant": "E547A", "effect of a mutation on the interaction": "disrupting interaction strength"}
{"variants_of": "B1", "conditions": "with sdcb1_human SDCBP"}
{"variant": "E547A", "effect of a mutation on the interaction": "disrupting interaction strength"}
{"variants_of": "B2", "conditions": "with hsbp1_human HSBP1, O75506"}
{"variant": "F44L", "effect of a mutation on the interaction": "with no effect"}
{"variants_of": "B3", "conditions": "with tnap3_human TNFAIP3, P21580"}
{"variant": "V206I", "effect of a mutation on the interaction": "with no effect"}
{"variant": "A264T", "effect of a mutation on the interaction": "with no effect"}
{"variant": "T134A", "effect of a mutation on the interaction": "with no effect"}
{"variants_of": "B4", "conditions": "with traf2_human TRAF2, Q12933"}
{"variant": "E67G", "effect of a mutation on the interaction": "with no effect"}
{"variant": "E643Q", "effect of a mutation on the interaction": "with no effect"}
{"variants_of": "B4", "conditions": "with maga9_human MAGEA9, P43362"}
{"variant": "E67G", "effect of a mutation on the interaction": "with no effect"}
{"variant": "E643Q", "effect of a mutation on the interaction": "with no effect"}
{"variants_of": "B5", "conditions": "with fril_human FTL"}
{"variant": "P49H", "effect of a mutation on the interaction": "with no effect"}
{"variant": "R147C", "effect of a mutation on the interaction": "with no effect"}
{"variants_of": "B5", "conditions": "with if4e2_human EIF4E2, O60573"}
{"variant": "P49H", "effect of a mutation on the interaction": "with no effect"}
{"variant": "A181T", "effect of a mutation on the interaction": "disrupting interaction strength"}
{"variants_of": "B5", "conditions": "with mlh1_human MLH1, P40692"}
{"variant": "P49H", "effect of a mutation on the interaction": "with no effect"}
{"variant": "A181T", "effect of a mutation on the interaction": "disrupting interaction strength"}
{"variants_of": "B5", "conditions": "with cc28a_human CCDC28A"}
{"variant": "A181T", "effect of a mutation on the interaction": "disrupting interaction strength"}
{"variants_of": "B6", "conditions": "with kt33b_human KRT33B"}
{"variant": "H266R", "effect of a mutation on the interaction": "with no effect"}
{"variant": "D217Y", "effect of a mutation on the interaction": "with no effect"}
{"variants_of": "B6", "conditions": "with KRT15, P19012"}
{"variant": "H266R", "effect of a mutation on the interaction": "with no effect"}
{"variant": "R30C", "effect of a mutation on the interaction": "with no effect"}
{"variant": "R213W", "effect of a mutation on the interaction": "with no effect"}
{"variant": "D217Y", "effect of a mutation on the interaction": "with no effect"}
